Biological target: the molecule itself
Test: SPR

B1: Maf-His6, purified recombinant Maf (natural protein, B. subtilis, UniProt Q02169 1-189, looked up)
chain: MTKPLILASQSPRRKELLDLLQLPYSIIVSEVEEKLNRNFSPEENVQWLAKQKAKAVADLHPHAIVIGADTMVCLDGECLGKPQDQEEAASMLRRLSGRSHSVITAVSIQAENHSETFYDKTEVAFWSLSEEEIWTYIETKEPMDKAGAYGIQGRGALFVKKIDGDYYSVMGLPISKTMRALRHFDIRA
Question: Does B1 bind?
Answer: binds

Source: article PMC3781949 (Molecular microbiology, 2011)
